Experimental data published in US20220242974A1 (QURE BIOTECHNOLOGY SHANGHAI, published 2022).

B1: QP1127 nanobody (VHH)
VHH: QVQLVESGGGSVQSGGSLTLSCAISGYAYATYSMAWFRQAHGKEREGVAAINSDGHTTYVDSVKGRFTISRDNTNKNSYTLTLTMNNLNPEDTAMYYCAATSQLGFWAQKLWEAIRDGTWSPSTTDFGFWGRGTQVTVSS
notes: as m59
B2: QP1125 nanobody (VHH)
VHH: QVQLVESGGGLVQPGGSLRLSCTAPGFTDKTCAMAWYRQVAGIEREWVSSISTLGTTNYASSVKGRFTISKDNAKDTVYLQMNNLKPEDTAMYVCKTFSCRNRGGSYLPDTWGQGTQVTVSS
notes: as m59
B3: QP1128 nanobody (VHH)
VHH: QVQLVESGGGSVQSGGSLRLSCAASGYTASAYYMAWFRQNSRKQREGVAAINRDGDTKYADSVKGRFTISRDDAKNTLYLQMNSLKPEDTAVYYCAASDWSRLYKIYWLDDNYYVRWGQGTQVTVSS
notes: as m59

target: PD-L1-his fusion protein (Homo sapiens (Human), UniProt Q9NZQ7 19-238); experiment: ELISA, PD-L1-his coated, culture supernatant of the clone
Sequence (Q9NZQ7 other isoform, or with tags, fused parts or gaps limits assumed): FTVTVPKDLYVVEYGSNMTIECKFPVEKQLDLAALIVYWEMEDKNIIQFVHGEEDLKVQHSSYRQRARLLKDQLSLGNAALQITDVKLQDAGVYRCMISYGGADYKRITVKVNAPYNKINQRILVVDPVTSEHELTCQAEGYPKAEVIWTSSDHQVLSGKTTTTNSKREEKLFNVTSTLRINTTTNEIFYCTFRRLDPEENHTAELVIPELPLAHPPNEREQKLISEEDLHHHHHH

| binding result | Binder |
| --- | --- |
| binds | B1 |
| binds | B2 |
| binds | B3 |
